From patent US20250066436A1 come the findings set out here.

Data set [1] has as its target endothelial cell protein C receptor (EPCR) (human) (UniProt Q9UNN8). Briefly: binding to EPCR; reference is the natural ligands of EPCR.
The target is the same in data set [2]. The experiment in a line: binding to EPCR on endothelial cells; reference is wild type.
The target in data set [3] is PAR1^WT/β-11 (PAR1 with the GFP 11th β-strand fused to its C-terminus) (UniProt P25116). Briefly: cell-based or functional assay.
Data set [4] addresses endothelial cell protein C receptor (EPCR) (human) (UniProt Q9UNN8). The experiment in a line: cell-based or functional assay.
Data set [5] has the same target. Briefly: binding to EPCR on endothelial cells; reference is wild type APC.
Data set [6] shares this target. Briefly: flow cytometry, fluorescently labelled protease on endothelial cells. For orientation: A flow cytometer gives signals particle by particle.
The target is the same in data set [7]. Briefly: flow cytometry, labelled active-site blocked protease on endothelial cells.
Data set [8] has as its target AP-PAR1 (PAR1 with an N-terminal alkaline phosphatase tag) (UniProt P25116).
The target of data set [9] is T1, AP-PAR1 (PAR1 with an N-terminal alkaline phosphatase tag), P25116.
T1 chain: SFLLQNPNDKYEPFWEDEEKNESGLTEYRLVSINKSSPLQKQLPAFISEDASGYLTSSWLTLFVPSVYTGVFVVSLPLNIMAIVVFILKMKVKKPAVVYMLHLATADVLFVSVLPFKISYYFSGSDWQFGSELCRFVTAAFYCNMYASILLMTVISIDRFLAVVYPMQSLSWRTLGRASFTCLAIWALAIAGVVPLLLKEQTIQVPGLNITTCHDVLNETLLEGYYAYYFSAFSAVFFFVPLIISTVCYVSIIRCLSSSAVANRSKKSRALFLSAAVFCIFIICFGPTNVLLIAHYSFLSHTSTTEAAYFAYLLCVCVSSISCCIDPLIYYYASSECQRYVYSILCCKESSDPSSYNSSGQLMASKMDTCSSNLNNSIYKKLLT

Chain of UniProt Q9UNN8 (Q9UNN8 18-238): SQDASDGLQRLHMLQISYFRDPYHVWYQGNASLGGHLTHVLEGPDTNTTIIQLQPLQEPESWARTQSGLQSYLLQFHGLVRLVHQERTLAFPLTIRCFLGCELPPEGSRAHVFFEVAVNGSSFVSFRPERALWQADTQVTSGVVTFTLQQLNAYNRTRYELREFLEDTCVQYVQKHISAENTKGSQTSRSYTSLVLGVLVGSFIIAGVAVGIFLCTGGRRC

Regarding “APC^CIDRα1.4 (truncated human activated protein C fused to the PfEMP1 CIDRα1.4 HB3var03 domain), proteolytically active (enzyme)”, the fold higher affinity than its natural ligands in [1] is less than 100 fold. Further, in [2], the fold increase in affinity compared to wild type is greater than 100 fold. The β-arrestin 2 recruitment to PAR1 (GFP formation by flow cytometry) in data set [3] is greater than 2 fold. The β-arrestin 2 recruitment to activated PAR1 in HEK 293T β-arrestin 2 reporter cells in data set [4] was determined as 3 fold. Besides, the fold enhanced affinity compared to wild type APC in [5] was less than 100 fold.
In [6], “P-APC^CIDR (APC^CIDRα1.4 active-site blocked with biotinylated PPACK) (enzyme)” gave a lowest concentration tested at which bound protease was present of 0.1 nM. The molecule also returned a concentration at which cell binding was still clearly visible in data set [7] of less than 0.3 nM.
For the molecule “wild type activated protein C (APC), proteolytically active”, the “PAR1 proteolysis (release of alkaline phosphatase tag into the supernatant)” value in data set [8] was “APC^CIDR cleaves PAR1 with comparable activity as APC”.

B1: APC^CIDRα1.4 (truncated human activated protein C fused to the PfEMP1 CIDRα1.4 HB3var03 domain), proteolytically active (protein)
chain: MRLAVGALLVCAVLGLCLPDCGVECKNETCTPKTVIYPDCGKNEKYEPPGDAKNTEINVINSGDKEGYIFEKLSEFCTNENNENGKNYEQWKCYYDNKKNNNKCKMEINIANSKLKNKITSFDEFFDFWVRKLLIDTIKWETELTYCINNTDVTDCNKCNKNCVCFDKWVKQKEDEWTNIMKLFTNKHDIPKKYYLNINDLFDSFFFQVIYKFNEGEAKWNELKENLKKQIASSKANNGTKDSEAAIKVLFNHIKEIATICKDNNTNEGCGDQCLVLPLEHPCASLCCGHGTCIDGIGSFSCDCRSGWEGRFCQREVSFLNCSLDNGGCTHYCLEEVGWRRCSCAPGYKLGDDLLQCHPAVKFPCGRPWKRMEKKRSHLKRDTEDQEDQVDPRLIDGKMTRRGDSPWQVVLLDSKKKLACGAVLIHPSWVLTAAHCMDESKKLLVRLGEYDLRRWEKWELDLDIKEVFVHPNYSKSTTDNDIALLHLAQPATLSQTIVPICLPDSGLAERELNQAGQETLVTGWGYHSSREKEAKRNRTFVLNFIKIPVVPHNECSEVMSNMVSENMLCAGILGDRQDACEGDSGGPMVASFHGTWFLVGLVSWGEGCGLLHNYGVYTKVSRYLDWIHGHIRDKEAPQKSWAP
For B1, the “PAR1 proteolysis (release of alkaline phosphatase tag into the supernatant)” value in data set [9] is “APC^CIDR cleaves PAR1 with comparable activity as APC”.
